The target in assay [1] is T1, recombinant human CD3 epsilon/gamma heterodimer (human, UniProt P07766 23-126; P09693 23-116).
T1 construct: Recombinant heterodimer used as analyte in Octet; also called hCD3 E/G
In words: BLI (Octet), mAb 5 ug/mL on FAB2G sensor, hCD3 E/G 200-50 nM.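 Also: antibodies purified from hybridoma supernatants, measured by Octet binding to recombinant human CD3 protein.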 In general terms: BLI is a label-free optical method that tracks binding on a fibre tip over time.

Assay [2] deals with T2, recombinant human CD3 epsilon/delta heterodimer (human, UniProt P07766 23-126; P04234 22-105).
T2 construct: Recombinant heterodimer used as analyte in Octet; also called hCD3 E/D; human CD3E/D
Briefly: BLI (Octet), mAb 5 ug/mL on FAB2G sensor, hCD3 E/D 200-50 nM.

The target of assay [3] is T3, human CD3 (on human Pan-T cells or donor PBMC) (human, UniProt P07766 23-207; P04234 22-171; P09693 23-182; P20963 22-164). In words: cell-based or functional assay.
Assay [4] has as its target T3, human CD3 (on human Pan-T cells or …). In words: cell-based or functional assay. The source holds these as a separate data set.

Residue numbers refer to the chain shown, from its start.

T1 sequence (P07766 23-126, chain 1 of 2): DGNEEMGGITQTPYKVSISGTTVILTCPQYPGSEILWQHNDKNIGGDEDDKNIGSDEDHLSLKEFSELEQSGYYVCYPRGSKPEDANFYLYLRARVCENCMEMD
T1 sequence (P09693 23-116, chain 2 of 2): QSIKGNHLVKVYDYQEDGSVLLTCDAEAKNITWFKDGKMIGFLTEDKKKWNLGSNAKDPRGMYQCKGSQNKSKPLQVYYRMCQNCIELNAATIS
T2 sequence (P07766 23-126, stated change not applied, chain 1 of 2): as the sequence (P07766 23-126, chain 1 of 2) above
T2 sequence (P04234 22-105, stated change not applied, chain 2 of 2): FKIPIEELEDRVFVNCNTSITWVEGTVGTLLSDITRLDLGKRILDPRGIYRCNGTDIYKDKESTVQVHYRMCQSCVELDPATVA
T3 sequence (P07766 23-207, chain 1 of 4): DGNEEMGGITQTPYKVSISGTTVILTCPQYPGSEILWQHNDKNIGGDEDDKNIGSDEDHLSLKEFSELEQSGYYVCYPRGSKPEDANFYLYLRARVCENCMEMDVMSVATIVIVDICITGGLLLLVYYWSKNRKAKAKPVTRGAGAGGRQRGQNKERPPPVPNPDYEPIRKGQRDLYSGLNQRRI
T3 sequence (P04234 22-171, chain 2 of 4): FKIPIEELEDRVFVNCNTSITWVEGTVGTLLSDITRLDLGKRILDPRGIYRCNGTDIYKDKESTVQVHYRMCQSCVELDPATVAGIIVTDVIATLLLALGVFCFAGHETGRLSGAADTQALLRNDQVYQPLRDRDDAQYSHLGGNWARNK
T3 sequence (P09693 23-182, chain 3 of 4): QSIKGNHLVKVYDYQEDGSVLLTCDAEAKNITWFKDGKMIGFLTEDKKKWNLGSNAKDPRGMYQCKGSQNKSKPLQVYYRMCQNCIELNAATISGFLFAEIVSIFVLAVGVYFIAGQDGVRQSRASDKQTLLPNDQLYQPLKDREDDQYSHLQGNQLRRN
T3 sequence (P20963 22-164, chain 4 of 4): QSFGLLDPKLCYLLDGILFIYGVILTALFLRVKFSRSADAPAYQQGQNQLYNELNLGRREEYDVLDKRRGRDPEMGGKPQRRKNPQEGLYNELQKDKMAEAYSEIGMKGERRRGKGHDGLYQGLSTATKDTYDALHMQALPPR

B1: ABL-CD3-64 (antibody, V domains shown)
VH: EVQVAESGGGLVKPGGSLRLSCAASGFTFSRYSMNWVRQAPGKGLEWVSSISSSGSYTYYADSVKGRFTISRDNAKNSLYLQMNSLRAEDTAVYYCVRERGKGAGMDVWGQGTTVTVSS
VL: NFMLTQPHSVSESPGKTVTISCTRSSGSIASNYVQWYQQRPGSSPTTVIYEDNQRPSGVPDRFSGSIDSSSNSASLTISGLKTEDEADYYCQSYDSSNRVFGGGTKLTVL
notes: mAb purified from hybridoma; chimeric AlivaMab IgG (human VH, CH1 and upper hinge; mouse middle hinge, CH2, CH3; human light chain)
For the molecule B1, in assay [1], the Kd (usually a measure of binding affinity in units of concentration) worked out at 71.9 nM; the Response was 0.46; the koff (as a rule, a measure of how fast the partners let go of each other) was found to be 0.013 s⁻¹; the kon (usually a measure of how fast the partners come together) was determined as 180000 M⁻¹ s⁻¹. Besides, in assay [2], the Kd came to 31.6 nM, the Response turned out to be 0.68, the off-rate (koff) came out at 0.0054 s⁻¹ and the kon came out at 171000 M⁻¹ s⁻¹.

B2: ABL-CD3-66 (antibody, V domains shown)
VH: QVQLQESGPGLVKPSETLSLTCTVSGGSISSYYWSWIRQPAGKGLEWIGRIYASGSTYYNPSLKSRVTMSVDTSKNQFSLKLSSVTAADTAVYYCAREKRSRLYFDYWGQGTLVTVSS
VL: B1 VL with A87G, S96R
notes: as for B1
Take B2: in assay [1], the Kd is 92.8 nM, the Response was determined as 0.09, the koff amounted to 0.0856 s⁻¹ and the kon was 923000 M⁻¹ s⁻¹. For the same molecule, in assay [2], the Kd turned out to be 78.2 nM, the Response is 0.41, the koff worked out at 0.0266 s⁻¹ and the kon was 341000 M⁻¹ s⁻¹.

B3: ABL-CD3-70 (antibody, V domains shown)
VH: EVQLVESGGGLVKPGGSLRLSCAASGFTFSTYIMNWVRQAPGKGLEWVSSITSSSSYIYYADSVKGRFTISRDNAKNSLYLQMNSLRAEDTAVYYCAREKWELLFFDYWGQGTLVTVSS
VL: B1 VL
notes: as for B1
For the molecule B3, in assay [1], the Kd amounted to 4.87 nM, the Response came to 0.11, the koff stood at 0.00339 s⁻¹ and the kon amounted to 697000 M⁻¹ s⁻¹. Also, in assay [2], the dissociation constant Kd stood at 47.1 nM, the Response stood at 0.26, the koff amounted to 0.0101 s⁻¹ and the kon was 214000 M⁻¹ s⁻¹.

B4: ABL-CD3-87 (antibody, V domains shown)
VH: B1 VH with V4L, A5V, P14F, G55S, T58K, V97A, R100G, K102N, G103S, A104H
VL: B1 VL
notes: as for B1
For B4, in assay [1], the Kd amounted to 131 nM, the Response was 0.36, the koff is 0.0279 s⁻¹ and the kon came out at 214000 M⁻¹ s⁻¹. Also, in assay [2], the Kd was 69 nM, the Response turned out to be 0.0358, the off-rate constant (koff) amounted to 0.0166 s⁻¹ and the kon turned out to be 240000 M⁻¹ s⁻¹.

B5: ABL-CD3-72 (antibody, V domains shown)
VH: B3 VH with T52S, S55R, K100D, W101R, E102Y, L103R
VL: B1 VL
notes: as for B1
For B5, in assay [1], the Kd came to 442 nM, the Response was 0.09, the koff is 0.211 s⁻¹ and the kon turned out to be 476000 M⁻¹ s⁻¹. In assay [2], the Kd worked out at 109 nM, the Response was 0.17, the koff worked out at 0.07 s⁻¹ and the kon was determined as 641000 M⁻¹ s⁻¹.

B6: ABL-CD3-78 (antibody, V domains shown)
VH: B3 VH with F29V, T31N, I33S, S50C, T52S, S53R, Y80F, K100R, F105Y
VL: B1 VL with Y94F, S96G
notes: as for B1
With B6, in assay [1], the Kd is 21.4 nM, the Response came out at 0.5, the koff turned out to be 0.00157 s⁻¹ and the association rate constant (kon) amounted to 73500 M⁻¹ s⁻¹. Besides, in assay [2], the Kd came out at 6.64 nM, the Response was found to be 0.56, the koff was 0.000568 s⁻¹ and the kon stood at 85600 M⁻¹ s⁻¹.

B7: ABL-CD3-84 (antibody, V domains shown)
VH: B3 VH with T31N, Y32F, T52S, S53G, S56N, R72G, E102V
VL: B1 VL with V48M, N53T
notes: as for B1
Regarding B7, in assay [1], the Kd amounted to 145 nM, the Response worked out at 0.1, the koff was 0.0614 s⁻¹ and the kon came to 424000 M⁻¹ s⁻¹. In assay [2], the Kd amounted to 143 nM, the Response is 0.22, the koff came to 0.0203 s⁻¹ and the on-rate constant (kon) was 142000 M⁻¹ s⁻¹.

B8: ABL-CD3-71 (antibody, V domains shown)
VH: B2 VH with S30N, A53T, Y58N, N76K, K99R, R100I, T112I
VL: B1 VL with S96R
notes: as for B1
With B8, in assay [1], the Kd is 55 nM, the Response was determined as 0.11, the koff was 0.0329 s⁻¹ and the kon turned out to be 598000 M⁻¹ s⁻¹. Also, in assay [2], the Kd is 58.8 nM, the Response was 0.48, the koff amounted to 0.0102 s⁻¹ and the kon was 173000 M⁻¹ s⁻¹.

B9: ABL-CD3-67 (antibody, V domains shown)
VH: B3 VH with F29V, T31S, I33S, T52S, S53R, Y80F, K100R, F105Y
VL: B1 VL with Q38R, S66A, N72T
notes: as for B1
For the molecule B9, in assay [1], the Kd was 109 nM, the Response was 0.26, the koff amounted to 0.0178 s⁻¹ and the kon is 163000 M⁻¹ s⁻¹. In assay [2], the Kd amounted to 53.3 nM, the Response amounted to 0.58, the koff amounted to 0.00485 s⁻¹ and the kon came out at 90800 M⁻¹ s⁻¹.

B10: ABL-CD3-68 (antibody, V domains shown)
VH: B3 VH with T31S, Y32S, T52S, S53G, L79Q, N84K, K100R, E102N, F105Y
VL: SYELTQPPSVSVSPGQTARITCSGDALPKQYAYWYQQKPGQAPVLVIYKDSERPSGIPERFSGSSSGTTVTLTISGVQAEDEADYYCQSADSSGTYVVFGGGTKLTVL
notes: as for B1
With B10, in assay [1], the Kd stood at 6.43 nM, the Response turned out to be 0.28, the koff was 0.00157 s⁻¹ and the kon stood at 244000 M⁻¹ s⁻¹. Besides, in assay [2], the Kd was 4.2 nM, the Response came out at 0.3, the koff was found to be 0.000973 s⁻¹ and the kon worked out at 232000 M⁻¹ s⁻¹.

B11: ABL-CD3-65 (antibody, V domains shown)
VH: QVQLQQWGAGLLKPSETLSLTCAVYGGSFSGYYWSWIRQPPGKGLEWIGEINHSGSTNYNPSLKSRVTISVDTSKNQFSLKLSSVTAADTAVYYCAREYYYYGMDVWGQGTTVTVSS
VL: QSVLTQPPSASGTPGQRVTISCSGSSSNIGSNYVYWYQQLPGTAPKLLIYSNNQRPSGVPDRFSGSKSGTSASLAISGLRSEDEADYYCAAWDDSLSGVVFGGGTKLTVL
notes: as for B1
B11: in assay [1], the Kd was 18.7 nM, the Response amounted to 0.01, the koff came out at 0.00174 s⁻¹ and the kon was 93200 M⁻¹ s⁻¹. Moreover, in assay [2], the Kd was 22.7 nM, the Response stood at 0.01, the off-rate (koff) is 0.00643 s⁻¹ and the kon came to 283000 M⁻¹ s⁻¹.

B12: CD3 × CD33-BspAb72 (bispecific antibody)
chain 1: EVQLVESGGGLVQPGGSLRLSCAASGFTFSSYSMNWVRQAPGKCLEWVSYISSSSSTIYYADSVKGRFTISRDNAKNSLYLQMNSLRDEDTAVYYCARDGPVDYGMDVWGQGTTVTVSSGGGGSGGGGSGGGGSGGGGSSYELTQPPSVSVSPGQTARITCSGDALPKQYTYWYQQKPGQAPVLVIYKDSERPSGIPERFSGSSSGTTVTLTISGVQAEDEADYYCQSADSSGTYRVFGCGTKLTVLDKTHTCPPCPAPEFEGGPSVFLFPPKPKDTLMISRTPEVTCVVVDVSHEDPEVKFNWYVDGVEVHNAKTKPREEQYNSTYRVVSVLTVLHQDWLNGKEYKCKVSNKALPASIEKTISKAKGQPREPQVYTLPPCREEMTKNQVSLWCLVKGFYPSDIAVEWESNGQPENNYKTTPPVLDSDGSFFLYSKLTVDKSRWQQGNVFSCSVMHEALHNHYTQKSLSLSPGK
chain 2: EVQLVQSGAEVKKPGSSVKVSCKASGYTITDSNIHWVRQAPGQSLEWIGYIYPYNGGTDYNQKFKNRATLTVDNPTNTAYMELSSLRSEDTAFYYCVNGNPWLAYWGQGTLVTVSSASTKGPSVFPLAPSSKSTSGGTAALGCLVKDYFPEPVTVSWNSGALTSGVHTFPAVLQSSGLYSLSSVVTVPSSSLGTQTYICNVNHKPSNTKVDKRVEPKSCDKTHTCPPCPAPEFEGGPSVFLFPPKPKDTLMISRTPEVTCVVVDVSHEDPEVKFNWYVDGVEVHNAKTKPREEQYNSTYRVVSVLTVLHQDWLNGKEYKCKVSNKALPASIEKTISKAKGQPREPQVCTLPPSREEMTKNQVSLSCAVKGFYPSDIAVEWESNGQPENNYKTTPPVLDSDGSFFLVSKLTVDKSRWQQGNVFSCSVMHEALHNRFTQKSLSLSPGK
chain 3: DIQLTQSPSTLSASVGDRVTITCRASESLDNYGIRFLTWFQQKPGKAPKLLMYAASNQGSGVPSRFSGSGSGTEFTLTISSLQPDDFATYYCQQTKEVPWSFGQGTKVEVKRTVAAPSVFIFPPSDEQLKSGTASVVCLLNNFYPREAKVQWKVDNALQSGNSQESVTEQDSKDSTYSLSSTLTLSKADYEKHKVYACEVTHQGLSSPVTKSFNRGEC
For the molecule B12, in assay [3], the “Cytokine Release Assay (IFNγ), Donor 0, gMFI max” value was found to be 465000 gMFI; the “Cytokine Release Assay (IFNγ), Donor 1, gMFI max” value came to 4820 gMFI; the “Cytokine Release Assay (IFNγ), Donor 2, EC50” value turned out to be 49.1 nM; the “Cytokine Release Assay (IFNγ), Donor 2, gMFI max” value came out at 12200 gMFI. Also, in assay [3], the “Cytokine Release Assay (IFNγ), Donor 3, gMFI max” value amounted to 82800 gMFI. In addition, in assay [4], the “RTCC Assay, Donor 0, EC50” value came to 5.36 nM; the “RTCC Assay, Donor 0, gMFI max” value came out at 21000 gMFI; the “RTCC Assay, Donor 1, EC50” value was determined as 0.819 nM; the “RTCC Assay, Donor 1, gMFI max” value is 78100 gMFI. Also, in assay [4], the “RTCC Assay, Donor 2, EC50” value came out at 2.43 nM; the “RTCC Assay, Donor 2, gMFI max” value worked out at 54100 gMFI; the “RTCC Assay, Donor 3, EC50” value turned out to be 4.9 nM; the “RTCC Assay, Donor 3, gMFI max” value came out at 66200 gMFI.

The values are drawn from patent publication US20260167721A1 (ABLEXIS, published 2026).
